The target in this test is T1, factor Xa (UniProt P00742 41-179; P00742 235-488, limits assumed).
T1 construct: Bought enzyme; The active enzyme has a light and a heavy chain cut from that precursor; also called FXa
Kind of test: discontinuous chromogenic substrate assay of FXa inhibition with pentasaccharide, against plasma AT.

The source of these data is patent US20120088715A1 (UNIVERSITE PARIS SUD XI, published 2012).

Bounds are passed on as bounds.

T1 sequence (P00742 41-179 limits assumed, form in doubt, chain 1 of 2): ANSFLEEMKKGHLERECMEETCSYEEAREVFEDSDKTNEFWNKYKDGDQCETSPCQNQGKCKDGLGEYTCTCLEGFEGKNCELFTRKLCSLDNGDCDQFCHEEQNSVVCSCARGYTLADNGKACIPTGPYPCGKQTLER
T1 sequence (P00742 235-488 limits assumed, form in doubt, chain 2 of 2): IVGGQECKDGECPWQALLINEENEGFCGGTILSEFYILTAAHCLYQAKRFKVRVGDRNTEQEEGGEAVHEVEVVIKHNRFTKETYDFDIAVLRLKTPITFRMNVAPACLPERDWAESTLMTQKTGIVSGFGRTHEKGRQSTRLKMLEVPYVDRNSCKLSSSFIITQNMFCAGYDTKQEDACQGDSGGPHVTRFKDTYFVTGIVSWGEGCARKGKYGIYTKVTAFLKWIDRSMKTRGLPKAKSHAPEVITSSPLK
Experimental: The pentasaccharide is added in excess in the reaction media so that every tested antithrombin is bound to the pentasaccharide. In the absence of pentasaccharide, polybrene (100 μg/ml final) is added in order to neutralize any sulfated glycosaminoglycan that may be present in the reaction media. […] The analysis of the data is performed using the GraphPad Prism version 3 software. Absorbance recording is continuous or discontinuous according to the expected inhibition rate constant (kon).
When the expected kon is lower than 10⁴ M⁻¹.s⁻¹ the discontinuous method is used. […] At the end of this incubation period, 190 μl of kinetic buffer containing 200 μM substrate is added and absorbance at 405 nm is recorded.

B1: AT-N135Q-Pro394 (other)
chain: HGSPVDICTAKPRDIPMNPMCIYRSPEKKATEDEGSEQKIPEATNRRVWELSKANSRFATTFYQHLADSKNDNDNIFLSPLSISTAFAMTKLGACNDTLQQLMEVFKFDTISEKTSDQIHFFFAKLNCRLYRKAQKSSKLVSANRLFGDKSLTFNETYQDISELVYGAKLQPLDFKENAEQSRAAINKWVSNKTEGRITDVIPSEAINELTVLVLVNTIYFKGLWKSKFSPENTRKELFYKADGESCSASMMYQEGKFRYRRVAEGTQVLELPFKGDDITMVLILPKPEKSLAKVEKELTPEVLQEWLDELEEMMLVVHMPRFRIEDGFSLKEQLQDMGLVDLFSPEKSKLPGIVAEGRDDLYVSDAFHKAFLEVNEEGSEAAASTAVVIAGRPSLNPNRVTFKANRPFLVFIREVPLNTIIFMGRVANPCVK
B1: the “fold lower kon than plasma AT” value was no less than 7600 fold.
